Legend:
Type in all cases: cell-based, human
[1] = tested on: PBMCs; assay: In vitro immunization (IVI) of PBMCs, antigen-specific IgG/IgM production by ELISA; conditions: for IgG production compared with Basic alone / IgM production compared with Basic alone: FIG. 19; for antigen specificity of antibody production (anti-OVA IgG vs anti-OVA IgM and anti-BSA IgG): basic + OVA, 14 days, FIGS. 20A-20C
Description: PBMCs were washed and diluted with PIV culture medium. Cell density was adjusted to 1*10^^7 cells/ml, treateder with 0.25 mM LLME for about 20 min. Discarded supernatant, and re-suspended cell with PIV culture medium. Adjusted cell density to 9*10^^5 cells/ml. […] Cultured the tissue for 7 days at 37° C., 5% CO2. Changed half of the medium and added factor cocktail on day 7. Cultured the cells for 7-21 days at 37° C., 5% CO2. Collected the supernatant on day 7, day 14, or day 21 for analysis of antibody production by ELISA, whereas the pellets are used for testing gene expression by PCR or RT-PCR. The collected cells were also tested in ELISpot assay for FACS analysis.
Exemplary IVI steps with addition of stimulate factors: • 1. Prepared PBMCs and treat them with LLME. • 2. […] Collected the cells and plate them into 96-well plate at a density of 6*10^4/well. • 4. […] The IgG and IgM level was examined with ELISA assay.
After day7 or day14 with addition of cytokines or antibody-enhancing composition and antigens, supernatants were harvested and added to antigen OVA-coated plates. After 2 hr incubation, a HRP-conjugated anti-human IgG or anti-human IgM was added, the amount of antigen-specific antibody was measured using TMB as substrate. The data represents the mean of 2 replicates; error bars represent SD. One representative data of 3 separate experiments is shown.
Plates were coated with antigen at 5 μg/ml overnight at 4° C. and washed them in PBST (containing 0.5% Tween-20). The plates were blocked with 5% BSA before addition of cell culture supernatants and horseradish peroxidase (HRP)-conjugated detection antibodies (dilutions: 1 in 2,500 for HRP-conjugated IgG-specific antibody (Jackson) and HRP-conjugated IgM-specific antibody. TMB substrates solution was used for measurement. […]
To further test effects of other cytokine or molecules on antibody production, a synthesized TLR7/8 agonist (50 nM and 500 nM) was added to the IVI system in the presence of antigen OVA (2 μg/ml).
An exemplary cytokine, IL1β, was tested. PBMCs were incubated in vitro with OVA, basic, and either some of the known stimulating factors ICOS, CD40L, TLR7/8 agonists or IL1β (in different doses) (1.5*10^^5 cell/well, 96 well plate). After 7 or 14 days, supernatants were harvested, and IgG/IgM antibody production was measured by ELISA assay.

[2] = tested on: AICDA, BLIMP-1, RAG expression; assay: Quantitative RT-PCR of AICDA, BLIMP-1 and RAG mRNA in immunized PBMCs
Description: Quantitative RT-PCR was carried out with a BioRad iCycler and the 2-(ΔΔCT) method was used to calculate relative mRNA expression levels normalized to GAPDH.
AID is known to be involved in B cell affinity maturation by inducing hyper-mutation in antibody genes. Expression of BLIMP-1 represents the proliferation and differentiation of active B cell. To test the effect of TLR agonists on the expression of AID, mRNA levels of AICDA (that encoding AID) after treatment with the synthesized TLR7/8 agonist (500 nM), in comparison with that of CD40L (55 nM), was determined by quantitative RT-PCR. PBMCs were collected from two different donors (see FIG. 8, donor 3 and donor 4). […]
To test the effect of TLR7 agonist imiquimod on the expression of AICDA and BLIMP-1, mRNA levels of AICDA and BLIMP-1 after IVI in the presence of the TLR7 agonist imiquimod (500 nM), was determined by quantitative RT-PCR, in comparison with that of CD40L (FIG. 9). […]
AICDA, RAG gene expression of the harvested cells was also measured by RT-qPCR analysis respectively. […] Data are expressed as means±SEM of triplicate independent samples (****P<0.0001, **P<0.001, by 1-way ANOVA with Sidak's multiple comparisons test).

[3] = tested on: GC like B cells within PBMCs; assay: FACS analysis of GC like B cells (CD3-CD19+GL7+Fas+) after in vitro immunization
Description: We analyzed stained cells on an […] (BD) and processed flow cytometry data with FlowJo software (Tree Star). PBMCs were collected into Snap-lock microtubes. For analysis of T cells or B cells, tubes were kept at 4° C. unless mentioned otherwise. After centrifugation, cells were washed and resuspended in PBS. For analysis of T follicular helper cells, PBMCs were stained with antibodies of CD3−FITC (BD), CD4− PerCP−Cy™5.5 (BD), CXCR5−PE/Cy7 (Biolegend), and CD45RA-PE(eBioscience), respectively. T follicular helper cells were identified with CD3^+CD4^+CXCR5^+CD45RA^−. For analysis of GC like B-cells, PBMC was stained with antibodies of CD19-PE (eBioscience), GL7− Alexa Fluor 488 (eBioscience), Fas-APC (eBioscience). GC like B-cells were defined as CD19^+GL7^+Fas^+.
After FACS sorting, GC like B cells are gated as CD3^−, CD19^+, GL7^+, Fas^+ cells. Numbers within the gates represent the GC like B cells of different groups. […] The ratio of GC like B cells is about 85.25% (FIG. 5B). Similarly, the PBMCs treated with ICOS. The ratio of GC like B cells is about 90.42% (FIG. 5C).
In the same way, PBMCs were incubated in vitro with OVA, basic, and CCL1 (1 μg/ml). After 7 days, cells were harvested, and single cell is sorting with CD19, CD3, GL7, FAS antibody as specific markers, dead cells are excluded by staining with DAPI. GC like B cells are gated as CD3−CD19+GL7+Fas+ cells. […]

## CXCL2: Human C-X-C motif chemokine 2
[1]; in vitro for 14 days, OVA
  IgG production compared with Basic alone: better than Basic alone

## CXCL5: Human C-X-C motif chemokine 5
[1]; CXCL5 20 ng/ml, in vitro for 14 days
  IgG production compared with known stimulating factors: inferior to TLR7/8 agonist but better than ICOS and CD40L
[1]
  antigen specificity of antibody production (anti-OVA IgG vs anti-OVA IgM and anti-BSA IgG): similarly stimulate the activation of OVA-specific B cells
[1]; in vitro for 14 days, OVA, basic, FIG. 18
  IgG production, dose relation: dose-dependent

## CC(C)Cn1cnc2c(N)nc3ccccc3c21 [imiquimod, reference compound]
[2]; OVA, basic, agonist 500 nM, FIG. 8 and FIG. 9
  expression of AICDA and BLIMP-1 compared with CD40L: far superior to CD40L

## IL1β: Human interleukin-1 beta, adipose tissue-derived secretory protein
[1]
  antigen specificity of antibody production (anti-OVA IgG vs anti-OVA IgM and anti-BSA IgG): promotes generation of anti-OVA IgG in a high level

## IL21: interleukin-21, cytokine; part of 'basic' medium at 50 ng/ml
[1]; antigen TrkA, individual stimulants, day 7, IL21 50 ng/ml
  production of anti-TrkA antibody IgG / IgM by individual stimulants: stimulated the production of antibody IgG but not IgM

B1: CCL4: Recombinant Human C-C motif chemokine 4 (protein, UniProt P13236 24-92, looked up)
C-C motif chemokine 4: APMGSDPPTACCFSYTARKLPRNFVVDYYETSSLCSQPAVVFQTKRSKQVCADPSESWVQEYVYDLELN
[1]; in vitro for 14 days, OVA
  IgG production compared with Basic alone: better than Basic alone
  IgM production compared with Basic alone: better than Basic alone

B2: CD40L: CD154, CD40 Ligand protein (protein, UniProt P29965 113-261, looked up)
CD40 ligand, soluble form: MQKGDQNPQIAAHVISEASSKTTSVLQWAEKGYYTMSNNLVTLENGKQLTVKRQGLYYIYAQVTFCSNREASSQAPFIASLCLKSPGRFERILLRAANTHSSAKPCGQQSIHLGGVFELQPGASVFVNVTDPSQVSHGTGFTSFGLLKL
[3]; antigen OVA 2 μg/ml, IL2 10 ng/ml + IL21 50 ng/ml (basic), sorted on day 14
  ratio of GC like B cells: about 85.25%
[1]; ICOS 24-100 nM, CD40L 10-55 nM, TLR7/8 agonist 0.1-500 nM, OVA, IL2, IL21
  regulation of IgG and IgM responses with dose: dose-dependent manner
[1]; OVA 4 ug/ml, IL2 10 ng/ml, IL21 50 ng/ml, 24 nM ICOS, 55 nM CD40L, 500 nM TLR7/8 agonist, 7 or 14 days
  IgG production on co-stimulation with IL2 and IL21: synergistic, complimentary effects on enhanced IgG production

B3: CCL1: Recombinant Human C-C motif chemokine 1 (protein, UniProt P22362 24-96, looked up)
C-C motif chemokine 1: KSMQVPFSRCCFSFAEQEIPLRAILCYRNTSSICSNEGLIFKLKRGKEACALDTVGWVQRHRKMLRHCPSKRK
[3]; 7 days, FIG. 25D
  GL7+FAS+ cell ratio, CCL1 plus TLR7/8 and basic vs TLR7/8 and basic only: increases
[2]; 7 days, RT-qPCR, FIGS. 25B-25C
  AICDA and RAG gene expression, CCL1 plus TLR7/8 and basic vs TLR7/8 and basic only: increased expression level of AICDA and RAG genes
[1]; R848 1 μg/ml, 7 days, FIG. 25A
  antigen-specific antibody production, CCL1 plus TLR7/8 agonists and basic vs TLR7/8 agonists and basic only: significantly increased

B4: CCL8: Human chemokine (C-C motif) ligand 8 (protein, UniProt P80075 24-99, looked up)
C-C motif chemokine 8: QPDSVSIPITCCFNVINRKIPIQRLESYTRITNIQCPKEAVIFKTKRGKEVCADPKERWVRDSMKHLDQIFQNLKP
[1]; OVA, basic, FIG. 17
  IgG production compared with known stimulating factors: inferior to TLR7/8 agonist but better than ICOS and CD40L
[1]
  antigen specificity of antibody production (anti-OVA IgG vs anti-OVA IgM and anti-BSA IgG): similarly stimulate the activation of OVA-specific B cells

B5: CXCL13: Recombinant Human chemokine (C-X-C motif) ligand 13 (protein, UniProt O43927 23-109, looked up)
C-X-C motif chemokine 13: VLEVYYTSLRCRCVQESSVFIPRRFIDRIQILPRGNGCPRKEIIVWKKNKSIVCVDPQAEWIQRMMEVLRKRSSSTLPVPVFKRKIP
[1]; in vitro for 14 days, OVA
  IgM production compared with Basic alone: better than Basic alone

B6: CXCL16: Mouse chemokine (C-X-C motif) ligand 16 (protein, UniProt Q8BSU2 27-246, looked up)
C-X-C motif chemokine 16: NQGSVAGSCSCDRTISSGTQIPQGTLDHIRKYLKAFHRCPFFIRFQLQSKSVCGGSQDQWVRELVDCFERKECGTGHGKSFHHQKHLPQASTQTPEAAEGTPSDTSTPAHSQSTQHSTLPSGALSLNKEHTQPWEMTTLPSGYGLEARPEAEANEKQQDDRQQEAPGAGASTPAWVPVLSLLAIVFFLTAAMAYVLCNRRATQQNSAGLQLWYTPVEPRP
[1]; in vitro for 14 days, OVA
  IgG production compared with Basic alone: better than Basic alone
  IgM production compared with Basic alone: better than Basic alone

B7: IL27: Recombinant Human Interleukin 27 (protein, UniProt Q8NEV9 29-243; Q14213 21-229, looked up)
Interleukin-27 subunit alpha: FPRPPGRPQLSLQELRREFTVSLHLARKLLSEVRGQAHRFAESHLPGVNLYLLPLGEQLPDVSLTFQAWRRLSDPERLCFISTTLQPFHALLGGLGTQGRWTNMERMQLWAMRLDLRDLQRHLRFQVLAAGFNLPEEEEEEEEEEEEERKGLLPGALGSALQGPAQVSWPQLLSTYRLLHSLELVLSRAVRELLLLSKAGHSVWPLGFPTLSPQP
Interleukin-27 subunit beta: RKGPPAALTLPRVQCRASRYPIAVDCSWTLPPAPNSTSPVSFIATYRLGMAARGHSWPCLQQTPTSTSCTITDVQLFSMAPYVLNVTAVHPWGSSSSFVPFITEHIIKPDPPEGVRLSPLAERQLQVQWEPPGSWPFPEIFSLKYWIRYKRQGAARFHRVGPIEATSFILRAVRPRARYYVQVAAQDLTDYGELSDWSLPATATMSLGK
[1]; in vitro for 14 days, OVA
  IgG production compared with Basic alone: better than Basic alone
  IgM production compared with Basic alone: better than Basic alone

From patent US20240043514A1, “NOVEL METHOD FOR PRODUCING ANTIBODIES” (TSINGHUA UNIVERSITY, priority 2017, published 2024)
